Results as given in doi:10.1101/2025.06.25.661420.

Target: SUMO fusion of the glycophorin A TM domain
Assay: SEC

stoichiometry N: 2
Substance: SUMO fusion of the glycophorin A TM domain (domain or fragment)
